In patent publication US20220177587A1, “METHODS AND USES OF VARIANT CD80 FUSION PROTEINS AND RELATED CONSTRUCTS” (Alpine Immune Sciences, Inc., priority 2018, published 2022):

Columns and labels:
huCTLA4 = huCTLA4 (Homo sapiens, UniProt P16410); assay: Flow binding to CHO cells stably expressing CTLA4; parameters: huCTLA4 and huPD-L1, full-length mammalian surface expression constructs were generated; expressed in transfected cells; host or cells: CHO cells, lentiviral transduction, sorted to >98% purity; details: 33.3 nM, CHO cells stably expressing CTLA4
Sequence of huCTLA4 (P16410 36-223): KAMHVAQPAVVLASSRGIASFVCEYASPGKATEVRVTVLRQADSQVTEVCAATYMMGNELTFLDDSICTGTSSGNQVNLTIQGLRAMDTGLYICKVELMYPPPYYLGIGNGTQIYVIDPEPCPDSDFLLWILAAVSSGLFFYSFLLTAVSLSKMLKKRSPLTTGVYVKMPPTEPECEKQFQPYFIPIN
Procedure: (§1) Binding of selected immunomodulatory fusion proteins to cognate binding partners was assessed. […] Cells were sorted in a Bio-Rad S3 Cell Sorter (Bio-Rad Corp., USA) to >98% purity. Jurkat/IL2 reporter cells, which endogenously express CD28, were used to detect binding to CD28.
(§2) For staining and analysis by flow cytometry, 100,000 cells of appropriate transfected cells were plated in 96-well round bottom plates. Cells were spun down and resuspended in staining buffer (phosphate buffered saline (PBS), 1% bovine serum albumin (BSA), and 0.1% sodium azide) for 20 minutes to block non-specific binding. […] Primary staining was performed on ice for 45 minutes, before washing cells in staining buffer twice. Phycoerythrin (PE)-conjugated anti-human Fc (Jackson ImmunoResearch, USA) was diluted 1:150, added to cells and incubated another 30 minutes on ice. Cells were then washed twice with 150 μL/well stain buffer, fixed in 2% formaldehyde/PBS, and analyzed on Intellicyt flow cytometer (Intellicyt Corp., USA). PE Mean Fluorescence Intensity (MFI) was calculated for each cell type with FlowJo Version 10 software (FlowJo LLC, USA).
(§3) Binding assays were carried out to assess the specificity and affinity of multivalent proteins to cell-expressed CTLA-4, CD28, and PD-L1 counter structures.
(§4) The EC50 for binding also was determined.

CD28 = CD28 (Homo sapiens, UniProt P10747); assay: Jurkat/IL2 + CHO/OKT3 +/- PD-L1 reporter assay: PD-L1-dependent CD28 costimulation; type: cell-based; parameters: host or cells: Jurkat cells expressing an IL-2-luciferase reporter; details: Jurkat/IL2 + CHO/OKT3/PD-L1
Procedure: Jurkat cells were then plated at 50 μL/well for a total of 100,000 cells per well.
To each well, 25 μL of test protein was added to the Jurkat cells. […] The Jurkat cells with test or control proteins were incubated for 15 minutes at room temperature. CHO-derived artificial antigen presenting cells (aAPC) displaying transduced cell surface anti-CD3 single chain Fv (OKT3) (i.e., no PD-L1), or OKT3 and PD-L1 (i.e., +PD-L1), were brought to 0.8×10^6 cells/mL, and 25 μL of cells were added to each well, bringing the final volume of each well to 100 μL. […] Jurkat cells and CHO cells were incubated for 5 hours at 37 degrees Celsius in a humidified 5% CO2 incubation chamber. Plates were then removed from the incubator and acclimated to room temperature for 15 minutes. 100 μL of a cell lysis and luciferase substrate solution (BioGlo luciferase reagent, Promega) were added to each well and the plates were incubated on an orbital shaker for 10 minutes. Luminescence was measured with a 1 second per well integration time using a BioTek Cytation luminometer, and a relative luminescence value (RLU) was determined for each test sample.

huPD-L1 = huPD-L1 (Homo sapiens, UniProt Q9NZQ7); assay: Flow binding to CHO cells stably expressing PD-L1; parameters: huCTLA4 and huPD-L1, full-length mammalian surface expression constructs were generated; expressed in transfected cells; host or cells: CHO cells, lentiviral transduction, sorted to >98% purity; details: CHO cells stably expressing PD-L1, 33.3 nM
Sequence of huPD-L1 (Q9NZQ7 19-290): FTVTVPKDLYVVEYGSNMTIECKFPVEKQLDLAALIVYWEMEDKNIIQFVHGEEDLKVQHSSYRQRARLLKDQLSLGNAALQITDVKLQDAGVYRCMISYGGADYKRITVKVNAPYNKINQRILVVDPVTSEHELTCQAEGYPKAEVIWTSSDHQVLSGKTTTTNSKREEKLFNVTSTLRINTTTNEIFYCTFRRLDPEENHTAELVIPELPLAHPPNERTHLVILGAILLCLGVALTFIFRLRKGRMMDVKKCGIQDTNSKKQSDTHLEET
Procedure: as §1, §2, §3, §4

Molecule	CTLA4 MFI at 33.3 nM (huCTLA4; Table E19)	Relative Luciferase Units (RLU), CD80 Conc 5.0 nM (CD28; Table E21) [RLU]	PD-L1 MFI at 33.3 nM (huPD-L1; Table E19)	further results
E35D/M43I/M47L/L85M (protein) VIHVTKEVKEVATLSCGHNVSVEELAQTRIYWQKDKKMVLTMISGDLNIWPEYKNRTIFDITNNLSIVILALRPSDEGTYECVVMKYEKDAFKREHLAEVTLSVKAD				CTLA4 MFI at 33.3 nM (huCTLA4; Table E10): 24584; Relative Luciferase Units (RLU), CD80 Cone 5.0 nM (CD28; Table E12): 1427 RLU
E35D/M47L/A71G (protein) VIHVTKEVKEVATLSCGHNVSVEELAQTRIYWQKDKKMVLTMMSGDLNIWPEYKNRTIFDITNNLSIVILGLRPSDEGTYECVVLKYEKDAFKREHLAEVTLSVKAD				CTLA4 MFI at 33.3 nM (huCTLA4; Table E10): 20576; Relative Luciferase Units (RLU), CD80 Cone 5.0 nM (CD28; Table E12): 1954 RLU
E35D/D46V/M47L (protein) VIHVTKEVKEVATLSCGHNVSVEELAQTRIYWQKDKKMVLTMMSGVLNIWPEYKNRTIFDITNNLSIVILALRPSDEGTYECVVLKYEKDAFKREHLAEVTLSVKAD	44977	746	7988	
E35D/M47V/V68M/K89N (protein) VIHVTKEVKEVATLSCGHNVSVEELAQTRIYWQKDKKMVLTMMSGDVNIWPEYKNRTIFDITNNLSIMILALRPSDEGTYECVVLKYENDAFKREHLAEVTLSVKAD	29493	779	21827	
E35D/D46V/V68M/L85Q (protein) VIHVTKEVKEVATLSCGHNVSVEELAQTRIYWQKDKKMVLTMMSGVMNIWPEYKNRTIFDITNNLSIMILALRPSDEGTYECVVQKYEKDAFKREHLAEVTLSVKAD	32176	864		
E35D/D46V/M47L/V68M (protein) VIHVTKEVKEVATLSCGHNVSVEELAQTRIYWQKDKKMVLTMMSGVLNIWPEYKNRTIFDITNNLSIMILALRPSDEGTYECVVLKYEKDAFKREHLAEVTLSVKAD	34319	681		
E35D/M47V/N48K (protein) VIHVTKEVKEVATLSCGHNVSVEELAQTRIYWQKDKKMVLTMMSGDVKIWPEYKNRTIFDITNNLSIVILALRPSDEGTYECVVLKYEKDAFKREHLAEVTLSVKAD	47430	561	4852	
E35D/V68M/K89N (protein) VIHVTKEVKEVATLSCGHNVSVEELAQTRIYWQKDKKMVLTMMSGDMNIWPEYKNRTIFDITNNLSIMILALRPSDEGTYECVVLKYENDAFKREHLAEVTLSVKAD	24838	537		
E35D/D46V/V68M (protein) VIHVTKEVKEVATLSCGHNVSVEELAQTRIYWQKDKKMVLTMMSGVMNIWPEYKNRTIFDITNNLSIMILALRPSDEGTYECVVLKYEKDAFKREHLAEVTLSVKAD	31195	799	26114	
N48K/V68M/K89N (protein) VIHVTKEVKEVATLSCGHNVSVEELAQTRIYWQKEKKMVLTMMSGDMKIWPEYKNRTIFDITNNLSIMILALRPSDEGTYECVVLKYENDAFKREHLAEVTLSVKAD	19129		11464	
D46V/V68M/L85Q (protein) VIHVTKEVKEVATLSCGHNVSVEELAQTRIYWQKEKKMVLTMMSGVMNIWPEYKNRTIFDITNNLSIMILALRPSDEGTYECVVQKYEKDAFKREHLAEVTLSVKAD	7567	267		
H18Y/M47L/A71G/D90G (protein) VIHVTKEVKEVATLSCGYNVSVEELAQTRIYWQKEKKMVLTMMSGDLNIWPEYKNRTIFDITNNLSIVILGLRPSDEGTYECVVLKYEKGAFKREHLAEVTLSVKAD				CTLA4 MFI at 33.3 nM (huCTLA4; Table E20): 18162; Relative Luciferase Units (RLU), CD80 Conc 5.0 nM (CD28; Table E22): 675 RLU
E35D/M47V/N48K/V68M (protein) VIHVTKEVKEVATLSCGHNVSVEELAQTRIYWQKDKKMVLTMMSGDVKIWPEYKNRTIFDITNNLSIMILALRPSDEGTYECVVLKYEKDAFKREHLAEVTLSVKAD	32913	747	23479	
V68M/K89N (protein) VIHVTKEVKEVATLSCGHNVSVEELAQTRIYWQKEKKMVLTMMSGDMNIWPEYKNRTIFDITNNLSIMILALRPSDEGTYECVVLKYENDAFKREHLAEVTLSVKAD	2330	100		
E35D/D46E/M47V/V68M/L85Q (protein, UniProt P33681 35-288, looked up, variant E35D D46E M47V V68M L85Q) T-lymphocyte activation …: VIHVTKEVKEVATLSCGHNVSVEELAQTRIYWQKDKKMVLTMMSGEVNIWPEYKNRTIFDITNNLSIMILALRPSDEGTYECVVQKYEKDAFKREHLAEVTLSVKADFPTPSISDFEIPTSNIRRIICSTSGGFPEPHLSWLENGEELNAINTTVSQDPETELYAVSSKLDFNMTTNHSFMCLIKYGHLRVNQTFNWNTTKQEHFPDNLLPSWAITLISVNGIFVICCLTYCFAPRCRERRRNERLRRESVRPV				CTLA4 MFI at 33.3 nM (huCTLA4; Table E11): 15533; Relative Luciferase Units (RLU), CD80 Cone 5.0 nM (CD28; Table E13): 1006 RLU; PD-L1 MFI at 33.3 nM (huPD-L1; Table E11): 1723
H18Y/E35D/V68M/A71G/R94Q/E95V (protein, UniProt P33681 35-288, looked up, variant H18Y E35D V68M A71G R94Q E95V, Fc fusion) T-lymphocyte activation …: VIHVTKEVKEVATLSCGYNVSVEELAQTRIYWQKDKKMVLTMMSGDMNIWPEYKNRTIFDITNNLSIMILGLRPSDEGTYECVVLKYEKDAFKQVHLAEVTLSVKADFPTPSISDFEIPTSNIRRIICSTSGGFPEPHLSWLENGEELNAINTTVSQDPETELYAVSSKLDFNMTTNHSFMCLIKYGHLRVNQTFNWNTTKQEHFPDNLLPSWAITLISVNGIFVICCLTYCFAPRCRERRRNERLRRESVRPV				CTLA4 MFI at 33.3 nM (huCTLA4; Table E11): 18281; CTLA4 MFI at 33.3 nM (huCTLA4; Table E16, consensus variants): 19396; Relative Luciferase Units (RLU), CD80 Cone 5.0 nM (CD28; Table E13): 183 RLU; Relative Luciferase Units (RLU), CD80 Cone 5.0 nM (CD28; Table E17, consensus variants): 1968 RLU
E35D/M47V/V68M/L85M/Y87D (protein, UniProt P33681 35-288, looked up, variant E35D M47V V68M L85M Y87D) T-lymphocyte activation …: VIHVTKEVKEVATLSCGHNVSVEELAQTRIYWQKDKKMVLTMMSGDVNIWPEYKNRTIFDITNNLSIMILALRPSDEGTYECVVMKDEKDAFKREHLAEVTLSVKADFPTPSISDFEIPTSNIRRIICSTSGGFPEPHLSWLENGEELNAINTTVSQDPETELYAVSSKLDFNMTTNHSFMCLIKYGHLRVNQTFNWNTTKQEHFPDNLLPSWAITLISVNGIFVICCLTYCFAPRCRERRRNERLRRESVRPV				CTLA4 MFI at 33.3 nM (huCTLA4; Table E11): 13936; Relative Luciferase Units (RLU), CD80 Cone 5.0 nM (CD28; Table E13): 1181 RLU; PD-L1 MFI at 33.3 nM (huPD-L1; Table E11): 1721
